Target: T1, CD-86, P42081
T1 chain: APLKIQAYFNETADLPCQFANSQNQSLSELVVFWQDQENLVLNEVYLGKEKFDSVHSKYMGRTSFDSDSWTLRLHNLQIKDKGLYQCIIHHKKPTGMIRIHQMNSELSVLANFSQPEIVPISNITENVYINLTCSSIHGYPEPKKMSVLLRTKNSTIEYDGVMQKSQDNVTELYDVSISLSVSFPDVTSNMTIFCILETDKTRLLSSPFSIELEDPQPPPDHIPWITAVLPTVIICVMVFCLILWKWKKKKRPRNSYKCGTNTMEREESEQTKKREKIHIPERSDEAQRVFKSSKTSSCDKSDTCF
Test: fluorescence correlation spectroscopy with photon counting histogram
Conditions: remark: other sources report otherwise

B1: CD-86, P42081 24-329 (receptor)
chain: APLKIQAYFNETADLPCQFANSQNQSLSELVVFWQDQENLVLNEVYLGKEKFDSVHSKYMGRTSFDSDSWTLRLHNLQIKDKGLYQCIIHHKKPTGMIRIHQMNSELSVLANFSQPEIVPISNITENVYINLTCSSIHGYPEPKKMSVLLRTKNSTIEYDGVMQKSQDNVTELYDVSISLSVSFPDVTSNMTIFCILETDKTRLLSSPFSIELEDPQPPPDHIPWITAVLPTVIICVMVFCLILWKWKKKKRPRNSYKCGTNTMEREESEQTKKREKIHIPERSDEAQRVFKSSKTSSCDKSDTCF
- PCH molecular brightness: 9360 CPSM
